Measured values: a protein production outcome set (Wang et al. 2014)

Assay: label from the status in PepcDB records

| Sequence | protein production |
| --- | --- |
| MNFPIDEKLIREKQNELHIKDLGMASIRDLVALVTNLEKATGTKFCRMEMGVPGLPAPQIGIETEIQKLREGVASIYPNLDGLPELKQEASRFAKLFVNIDIPARACVPTVGSMQGCFVSFLVANRTHKNREYGTLFIDPGFNLNKLQCRILGQKFESFDLFEYRGEKLREKLESYLQTGQFCSIIYSNPNNPTWQCMTDEELRIIGELATKHDVIVIEDLAYFGMDFRKDYSHPGEPLYQPSVANYTDNYILALSSSKAFSYAGQRIGVLMISGKLYEREYPDLEESFGRLRFGEALSSSALYALSSGATHSAQWGMAAMLKACNDGEYNFRDSVIEYGRKARIMKKMFLDNGFNIVYDKDGNEPLADGFYFTVGYKGMDSSKLIEKFVRYGMCAITLKTTGSKRNEAMRICTSLLPESQFPDLEKRLQMLNAEG | not failed |
| MSKKTDVVKEYTRIDSKRGLSITTGANRMKLFDRRVLELGRGEYGKLWNVIILGLLISFSYIVQGLLIAVILNGVFAGTPLHESRLYFAAVALLIVLRWIMIRENDRIAARTASNIAMSLRRRMYHKLYELGPGWIMTQKSGVIQATLVDGAEALQNYYGRFLPQVVVSIAAGISIVAILFYVDMTIGLVIGGMMIAALIQPLAIYKGVGKGIRIWFVAMPRLFAEYVDNIQGIVTLKSFNASQRQGKILYQRTNDLYDAEIGILRDEILWSVPPGLVAAICGTVAIIIGAIRMDAGALSAAGLLFVLLLVREALRPVTDLRQTIHFSFSGMGAAEGVLDILEATPLAAVTARPTPSSIPHSFAFEDVTFRYRKTDASAVENLSFKVEPGDKVALVGRSGSGKTTVTSLLMRYFDPQAGIIRLGGEDIRHIPADELHAMYSIVSQDTFLFHGTVRDNLLMAKPEASQEELERAARAAAAHKFIATLPDSYDTLIGERGVRLSGGERQRIAIARAILKDAPILILDEATSSVDVANETLIREAIAGLAHDRTTLLISHRLSAVRDADRIYVLEKGRLMEAGTHSKLVGCNGNYSALVRAEEECI | failed |
| MGTHIKNQYISPPNTVYDCSIVKLPKIENRSGNITPIHSWVNIPFQIKRIFYSYDIPGGESRGAHAHKKCHQFLIAASGSFEVVLDDGISKRTVLLNRPFYGLHIPPGIWASEQGFSSGSVCLVLASHVYEEDDYLRDYQGFLNYKSQGIFEMFINVNGGGVSPKIFYLPFLFTKSKEEVA | failed |
| MEMYFKRMKDEWTGLVEQADPPIRAKAAEIAVAHAHYLSIEFYRIVRIDPHAEEFLSNEQVERQLKSAMERWIINVLSAQVDDVERLIQIQHTVAEVHARIGIPVEIVEMGFRVLKKILYPVIFSSDYSAAEKLQVYHFSINSIDIAMEVMTRAFTFSDSSASKELEHHHHHH | not failed |
| MPLTDTPPSVPQKPRRGRPRGAPDASLAHQSLIRAGLEHLTEKGYSSVGVDEILKAARVPKGSFYHYFRNKADFGLALIEAYDTYFARLLDQAFLDGSLAPLARLRLFTRMAEEGMARHGFRRGCLVGNLGQEMGALPDDFRAALIGVLETWQRRTAQLFREAQACGELSADHDPDALAEAFWIGWEGAILRAKLELRPDPLHSFTRTFGRHFVTRTQE | not failed |
| MPFVAVATCLSPLIICYPQNRTMECDLLMIKIEKVINKNDLKAFIAFPSSLYPDDPNWIPPLFIERNEHLSAKNPGTDHIIWQAWVAKKAGQIVGRITAQIDTLHRERYGKDTGHFGMIDAIDDPQVFAALFGAAEAWLKSQGASKISGPFSLNINQESGLLIEGFDTPPCAMMPHGKPWYAAHIEQLGYHKGIDLLAWWMQRTDLTFSPALKKLMDQVRKKVTIRCINRQRFAEEMQILREIFNSGWQHNWGFVPFTEHEFATMGDQLKYLVPDDMIYIAEIDSAPCAFIVGLPNINEAIADLNGSLFPFGWAKLLWRLKVSGVRTARVPLMGVRDEYQFSRIGPVIALLLIEALRDPFARRKIDALEMSWILETNTGMNNMLERIGAEPYKRYRLYEKQI | failed |
| PVLTQTSEQAPSSAPRDVQARMLSSTTILVQWKEPEEPNGQIQGYRVYYTMDPTQHVNNWMKHNVADSQITTIGNLVPQKTYSVKVLAFTSIGDGPLSSDIQVITQTG | not failed |
| MGHHHHHHSHMGKKLLVLDVDYTLFDHRSCAETGVELMRPYLHEFLTSAYEDYDIVIWSATNMKWIEAKMKELGVSTNANYKITFMLDSAAMITVHTPRRGLIDVKPLGVIWGKFSEFYSKKNTIMFDDIGRNFLMNPQNGLKIRPFMKAHLNRDKDKELLKLTQYLKEIAKLDDFLDLNHKY | failed |
| MSLESGFLEDAQANLTLRNFYFNRNFTNPTKAQGKAEEWTQSFILDAKSGFTQGTVGFGMDVLGLYSLKLDGGKGTGGTQLLPLDHDGRPADNFGRLGVAFKARLSQTEVKVGEWMPVLPILRSDDGRSLPQTFRGGQITSKEIAGLTLYGGQFRANSPRDDSSMSDMSMFGKAAFTSDRFNFQGAEYAFNDKRTQIALWNAQLKDIYSQQFINLIHSQPLGDWTLGANLGFFYGKEDGSARAGDMENRTWSGLFSAKYGGNTFYVGLQKLTGDSAWMRVNGTSGGTLANDSYNASYDNAKEKSWQVRHDYNFAALGVPGLTLMNRYISGSNVHTATVSDGKEWGRESEVAYTVQSGTLKNLNLKWRNSTMRRDFSNNEFDENRLIISYPLSLLEGHHHHHH | not failed |
| MIFNSARLKDMDIQYQILRQIEKYQTIIIHRHQRPDPDAVGSQLGLKNGLQAAFPEKNIYAVGKEITGLAWVGSMDIIPDSTYENALVIVIDTANVARIDDDRFKNGDKLIKIDHHPNDEPYGDLMWVEPGRSSCSEMVTFFLDDNIPLLLTDEAARNLYIGIVGDTGRFMYASTPETFIAVSKLYHFSIDYERVNREMSSISLVQARFSGKVYDEMKVEDHVGWITLTKAEIEAGHLGNEGTNFVVGMFGSIKEVLVWANFIENDDGSYRVRLRSKGPNVNEIAKLHNGGGHDMASGAKAKDQTEIDQIIKELKESANIFSTSLEKTAK | failed |
| MNMTAGRRAALTREQASSETMTMESSAYGEAVRAVRTGEISADEAANQLIDRMTEGEVLGLLDGDSSRWVLPFIPALLDRRPFVAGAVSRLGIPGIRFSDGGRGVVIGASTAFPVTIARAATWDPSLEERVGIAIGLETRARGANYSASVCVNLLRHPAWGRAQECYGEDPVLTGRMGSALTRGVRLHVMACVKHFALNSMENERFEVDVAVDEHALHEVYLPHFKAVVDAGADSVMSSYNRVRGEYMDVNRALLTDVLRREWGFSGFVTSDWVFGTHDAVASLEAGMDVEMPLRLLRARELPAALRNGVLARATVLQSARRVLRTCVEHSANRELAAPTRAVIASPAHRALAHQVAAESIVMLKNETVGAAPLLPLAPTIQHLAVIGRLAAQGNLGDHGSSRVRPPSTVSPLQGLREALPGVLISTTTGRDERRAAAMAAAAEMAIVVVGLDQHDEGESVVTGGVDVGVIGRTFGSGPLRQVLIGLAHLASRFVRGGDRSSLNLRPSDERLIQAVVAANPRTVVVLVSGSAILTEAWRDRVPALLLAWYGGMEGGRALASVLTGSEEPGGRLPFVLPTDAAHLPFFDSAAKSVVYDAQWGQRRLDGEGHRPAYPFGFGLSYTTLEHRLIDHTLDSSGGNANVHVTNKGHRKGSTVVQVYAADVSLRRPVAQLLGFRKVTLQPGAETTVRVVLDAGPTLQRDSTTRRWSPRSGVWALQASQHSPDSWENAVRLRRTEGLIDQEGTSDVKPA | failed |
| TYWDVDFPRLDQRDSTLTEADHIANVRAALLEAVEMRMVADVPVGCYLSGGIDSCSILGLASAVSQGPVKAFTIGFDDARYDETPIAAEMAEATGAEQDVMRLSGRELYGHMEQTLWHTERTIYNTLAVAKYLMSRHVNSVDYKVVMTGEGSDELFGGYPAFRRDMFLHGLEDLPQSDRQDWESLLQTNNSLVQGAMLAADQVDDPDLDAVVGFTPSCLQPWLACAPLVPDLLADEHRQALVEYSPGKAIAEQLNPQQLDGRHALDKAQYVWIKTMLEGQILTWGGDRVDMANSMEARPAFLDHHLAAAAVQVPPELRIKGKTEKYVLREAMAGLLPEVLYKREKFAFMAPPAHTEPEKWAQMKQLADDYLSDEAIDAAGLLSKEGVRALFARHDDPATTDAERVQMDAVINHLLG | failed |
| MSEALELLGQDIVARAPGVLGHSVAFGELTIVARAASVIDTLTFLRDDAACRFHQLIDLTGVDYPERAARFDVVYHLLSLVKNHRIRLKVSTDEDTPVPSVTPVFPVADWFEREAFDMYGIFFDGHPDLRRILTDYGFHGHPLRKDFPMTGYVEVRYDDELKRVVYEPVKITEFRAFDFLSPWEGAKYALPGDEKAQ | failed |
| MKPIDEELLLEQLIDNVKNCKDLEAAKALLFEICGHDAILEKAVDYCIFCHEGQFRKSGEPYAVHPILVATLVGFLSENKSNILAALLHDVIEDTNCTEEELREQFGSEVLKLVLGLTKIIEIREDNLISSKSKKSLTKSALTFRNMLLASIEDVGVLIVKLCDRLHNMLTLDILREDKQKRISEETLVVYAPIAHRLGISSIKNYLEDLSFKYLMPDEYKLIDNYINSNNQEMQLGLNEFISKIELLFLSNGFRQGSFEIQKRIKHSYSIYLKMQRKGIGIEEVLDLLGVRILVEKVSDCYLALGILHTHFNPLVSRFKDYIALPKQNGYQTIHTTLFDAKSIIEAQIRTFDMHKIAEFGIAAHWKYKEDGSVVAPRLDWLTDISMQSINNLENAEDYNAIELYEYAKDSLYVEDVAVYSPKGEIFTLPRGATVLDFAYEVHTKVGLHAKSAYVNRIKVPLLTELKNGDIVRVVTSNDKFYRCSWIDSVKTGKAKASIREFCKQKIREINLASSINMLSFIFGVDKNRIETWIEKENLVRRIRQVATDSAYLKDIVNGLKKYAKKSYWFDKYEIKEQKIGNFTLYCNHKIANVDFDFCCHPKRGDAVLAFVKGGNAIVHHKLCDRADKMIDNNQDMVFIKWDSNIPKSYKLIFSLENKKGVLAEFLAFLAKMQINLLTINLSSDLNSAVDYFEITMEIPDNINPDSVKDRLKSRCKILDFTSLNDAYKES | failed |
| MNKMNNNILKKNDLSSQEESTHEIQDVLDQLDFYTYKIALFLDIDGTLADFKIDPLACFISKKILKSIQDIQSKGCLVSVITGRDYNSAQKLLADVSLPIAALHGLDIHINEKTQLNAINQNNQIFIQNFLCRLKEEIKYQPDLSIENKHHSIALHYRKNPDLYDIAKHIMNTVKKDNDEFKVIEGKYVFELIPKNSNKGSAIKTLLSYFDAEHYLSIFIGDDITDEDGFNMVNQLEGISIKVGSGKTVARFRLKNIEHVEEFLNLLSHHFPDSSTQITKKYGEQHV | failed |
| MLTKVIEQAKIDHFTKWFERADKIVIVSHVSPDGDAIGSSLGLYHFLDSQEKTVNVIVPNAFPDFLRWMPGSKDILLYDRYKDFADKLIAEADVICCLDFNALKRIDEMADAVAASPARKVMIDHHLYPEEFCKITMSYPKISSTSELIFRLICRMGYFSDISKEGAECIYTGMMTDTGGFTYNSNNREIYFIISELLSKGIDKDDIYRKVYNTYSESRLRLMGYVLSNMVVYSDYNAALISLTKEEQSKFDYIKGDSEGFVNIPLTIKNVCFSCFLREDTEKPMIKISLRSVGTFPCNQLAAEFFNGGGHLNASGGEFFGTIEEAKAVFEQALEKYKPLLTAKSLEHHHHHH | not failed |
